This is an account of results in patent US20230242673A1.

This experiment has as its target LDLR expressed in HepG2 cells (UniProt P01130). In words: cell-based or functional assay.

Sequence of LDLR expressed in HepG2 cells (P01130 22-860 limits assumed): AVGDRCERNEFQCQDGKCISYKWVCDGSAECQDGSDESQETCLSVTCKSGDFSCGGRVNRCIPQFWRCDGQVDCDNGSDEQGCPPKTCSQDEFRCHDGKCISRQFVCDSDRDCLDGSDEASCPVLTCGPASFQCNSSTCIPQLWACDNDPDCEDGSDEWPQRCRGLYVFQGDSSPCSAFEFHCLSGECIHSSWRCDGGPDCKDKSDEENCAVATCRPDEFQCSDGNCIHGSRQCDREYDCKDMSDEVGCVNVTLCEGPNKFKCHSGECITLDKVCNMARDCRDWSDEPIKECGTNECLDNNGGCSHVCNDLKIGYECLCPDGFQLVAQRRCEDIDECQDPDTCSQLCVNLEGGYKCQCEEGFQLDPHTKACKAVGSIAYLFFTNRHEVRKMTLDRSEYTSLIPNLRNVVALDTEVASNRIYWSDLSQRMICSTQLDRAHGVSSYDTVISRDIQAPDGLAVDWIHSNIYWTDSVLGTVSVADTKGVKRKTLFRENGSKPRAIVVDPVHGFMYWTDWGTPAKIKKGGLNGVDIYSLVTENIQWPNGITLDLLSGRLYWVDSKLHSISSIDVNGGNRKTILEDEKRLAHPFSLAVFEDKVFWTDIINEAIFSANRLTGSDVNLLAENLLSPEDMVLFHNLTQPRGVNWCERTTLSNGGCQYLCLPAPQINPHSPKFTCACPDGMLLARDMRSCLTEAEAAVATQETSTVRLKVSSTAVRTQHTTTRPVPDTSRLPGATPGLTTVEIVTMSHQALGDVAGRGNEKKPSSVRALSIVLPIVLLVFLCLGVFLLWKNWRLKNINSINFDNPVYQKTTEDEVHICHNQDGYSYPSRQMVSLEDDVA

“PCSK9 Ag (human PCSK9 protein, Acro Cat No: PC9-H5223) (from UniProt Q8NBP7 31-692)” had an LDL uptake by HepG2 cells, fluorescence value of LDL BODIPY (485 Ex/535 Em) of 80.
